Publication PMC4377584, “Sestrin2 inhibits mTORC1 through modulation of GATOR complexes” (Scientific Reports, 2015)

Target: T1, HA-GATOR2 (UniProt Q9NXC5 1-875; Q96S15 1-790; Q6PJI9 1-974; Q96EE3 1-360; P55735 1-322)
T1 construct: MIOS; WDR24; WDR59; SEH1L; SEC13; that every subunit carried the HA tag is read from the name HA-GATOR2; also called immunopurified GATOR2 protein components; purified GATOR2; source: HEK293, transfected, immunopurified (anti-HA agarose beads, HA peptide); copies: + + + +
Test: pull-down; in vitro: purified proteins mixed in 20 ul buffer A (30 mM Tris-HCl pH8.0, 100 mM NaCl, 1 mM TCEP), incubated overnight with antibodies against the target protein, protein G/A bead, immunoblot; 1 ug Sestrin2; in Fig. 2D GATOR1 pulled down with NPRL2 antibody and detection with HA antibody
Conditions: both partners purified

B1: Recombinant Sestrin2 (natural protein, UniProt P58004 1-480, looked up)
chain: MIVADSECRAELKDYLRFAPGGVGDSGPGEEQRESRARRGPRGPSAFIPVEEVLREGAESLEQHLGLEALMSSGRVDNLAVVMGLHPDYFTSFWRLHYLLLHTDGPLASSWRHYIAIMAAARHQCSYLVGSHMAEFLQTGGDPEWLLGLHRAPEKLRKLSEINKLLAHRPWLITKEHIQALLKTGEHTWSLAELIQALVLLTHCHSLSSFVFGCGILPEGDADGSPAPQAPTPPSEQSSPPSRDPLNNSGGFESARDVEALMERMQQLQESLLRDEGTSQEEMESRFELEKSESLLVTPSADILEPSPHPDMLCFVEDPTFGYEDFTRRGAQAPPTFRAQDYTWEDHGYSLIQRLYPEGGQLLDEKFQAAYSLTYNTIAMHSGVDTSVLRRAIWNYIHCVFGIRYDDYDYGEVNQLLERNLKVYIKTVACYPEKTTRRMYNLFWRHFRHSEKVHVNLLLLEARMQAALLYALRAITRYMT
notes: Full-length Sestrin2 cDNA; also called Sestrin2 protein; purified Sestrin2; source: Rosetta (DE3) pLysS E. coli, purified (Ni-NTA, amylase resin, TEV, HiTrap Q, Superdex 200); not shown: His6, N-terminal, cleaved; MBP, N-terminal, cleaved
Q: Does B1 bind?
A: Result: binds
